Results: patent publication US7553667B2, “Regulation of gene expression using chromatin remodelling factors” (Her Majesty the Queen in right of Canada as represented by …, priority 2002, dated 2009)

T1: GST-Gcn5 (Arabidopsis thaliana, UniProt Q9AR19)
T1 construct: made in house; host or cells: E. coli BL21-CodonPlus (DE3)-RP
T1 sequence (Q9AR19 1-568): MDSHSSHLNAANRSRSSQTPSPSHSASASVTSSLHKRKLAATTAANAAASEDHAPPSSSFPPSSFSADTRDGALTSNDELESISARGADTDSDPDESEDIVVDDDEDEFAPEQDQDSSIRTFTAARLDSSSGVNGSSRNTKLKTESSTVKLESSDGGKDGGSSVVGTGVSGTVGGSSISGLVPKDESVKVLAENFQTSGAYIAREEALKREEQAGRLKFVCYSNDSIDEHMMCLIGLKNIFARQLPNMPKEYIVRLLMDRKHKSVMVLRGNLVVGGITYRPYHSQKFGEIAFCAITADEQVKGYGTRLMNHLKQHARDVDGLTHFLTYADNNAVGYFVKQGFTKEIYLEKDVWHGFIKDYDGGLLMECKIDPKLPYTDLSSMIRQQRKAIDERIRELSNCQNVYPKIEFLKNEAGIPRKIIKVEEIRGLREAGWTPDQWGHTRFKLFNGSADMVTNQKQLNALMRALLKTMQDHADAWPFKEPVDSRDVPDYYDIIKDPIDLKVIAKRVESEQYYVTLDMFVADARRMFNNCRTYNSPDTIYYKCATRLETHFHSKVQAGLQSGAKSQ

T2: Gcn5 (Arabidopsis thaliana, UniProt Q9AR19)
T2 construct: expressed in transfected cells; host or cells: Saccharomyces cerevisiae MaV203
T2 sequence (Q9AR19 1-568): T1 sequence (Q9AR19 1-568)

T3: GST-HDA19 (Arabidopsis thaliana, UniProt O22446)
T3 construct: made in house; host or cells: E. coli BL21-CodonPlus (DE3)-RP
T3 sequence (O22446 1-501): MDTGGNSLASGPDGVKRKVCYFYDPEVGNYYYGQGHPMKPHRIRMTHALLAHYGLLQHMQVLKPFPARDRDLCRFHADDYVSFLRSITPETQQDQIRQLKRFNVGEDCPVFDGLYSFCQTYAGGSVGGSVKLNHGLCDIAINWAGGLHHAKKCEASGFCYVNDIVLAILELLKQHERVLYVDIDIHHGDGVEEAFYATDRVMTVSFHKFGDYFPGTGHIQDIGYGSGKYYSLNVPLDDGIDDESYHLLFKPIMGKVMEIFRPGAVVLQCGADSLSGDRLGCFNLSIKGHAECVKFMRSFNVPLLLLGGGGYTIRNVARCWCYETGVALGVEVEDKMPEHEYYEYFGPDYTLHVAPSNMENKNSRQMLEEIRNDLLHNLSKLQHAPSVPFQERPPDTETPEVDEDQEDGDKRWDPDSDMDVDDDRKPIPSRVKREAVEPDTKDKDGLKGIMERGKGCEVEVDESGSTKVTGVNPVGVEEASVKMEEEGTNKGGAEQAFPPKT

B1: bnKCP1: B. napus KID-containing protein 1, 215 amino acid protein interacting with HDA19 (SEQ ID NO:71) (protein)
chain: MAGGGPTFSIELSAYGSDLPTDKASGDIPNEEGSGLSRVGSGIWSGRTVDYSSESSSSIGTPGDSEEEDEESEEDNDEEELGLASLRSLEDSLPSKGLSSHYKGKSKSFGNLGEIGSVKEVPKQENPLNKKRRLQIYNKLARKSFYSWQNPKSMPLLPVHEDNDDEEGDDGDLSDEERGGDVLARRPSFKNRALKSMSCFALSDLQEEEEEEEDE
modifications: left off: large carriers
B2: BnSCL1: Brassica napus SCARECROW-like protein 1, SEQ ID NO:81 (protein)
chain: MKLQASSPQDNQPSNTTNNSTDSNHLSMDEHAMRSMDWDSIMKELEVDDDSAPYQLQPSSFNLPVFPDIDSSDVYPGPNQITGYGFNSLDSVDNGGFDYIEDLIRVVDCIESDELHLAHVVLSQLNQRLQTSAGRPLQRAAFYFKEALGSLLTGTNRNQLFSWSDIVQKIRAIKEFSGISPIPLFSHFTANQAILDSLSSQSSSPFVHVVDFEIGFGGQYASLMREIAEKSANGGFLRVTAVVAEDCAVETRLVKENLTQFAAEMKIRFQIEFVLMKTFEILSFKAIRFVDGERTVVLISPAIFRRVIGIAEFVNNLGRVSPNVVVFVDSEGCTETAGSGSFRREFVSAFEFYTMVLESLDAAAPPGDLVKKIVETFLLRPKISAAVETAANRRSAGQMTWREMLCAAGMRPVQLSQFADFQAECLLEKAQVRGFHVAKRQGELVLCWHGRALVATSAWRF
modifications: left off: large carriers

What was measured:
[1] = system: lacZ reporter gene driven by promoter containing GAL4 DNA binding sites; assay: Transactivation assay of bnKCP1 using yeast one-hybrid system; assay type: cell-based, yeast MaV203
Text: Effector plasmids pDBLeu-bnKCP1^1-160, pDBLeu-bnKCP1^1-80, pDBLeu-bnKCP1^81-215 and pDBLeu-bnKCP1 were constructed by ligating the PCR-amplified fragments ΔbnKCP1^1-160, ΔbnKCP1^1-80, ΔbnKCP1^81-215 and the coding region of bnKCP1 into the SalI/NotI sites of pDBLeu vector (GibcoL BRL) in-frame with the GAL4 DB sequence. The oligonucleotide primers for PCR amplification were as follows: […]
The three reporter genes, lacZ, HIS3 and URA3, which were chromosomally integrated in the genome of MaV203 yeast cells were driven by unrelated promoters containing GAL4 DNA binding sites (GibcoL BRL). For transient assays, the effector constructs or the negative control vector pDBLeu were transferred to the MaV203 yeast cells. The β-galactosidase activity was measured using CPRG (chlorophenol red-β-D-galactopyranoside) according to the manufacturer's instructions (GibcoL BRL). The MaV203 cells containing plasmids pDBLeu-HDA19 and pPC86-bnKCP1 were used as the positive control. In addition, we used three yeast control strains A, B, and C (GibcoL BRL), which were developed to contain plasmid pairs expressing fusion proteins with none, weak and moderately strong protein-protein interaction strength, respectively. Transient Expression of the GUS-bnCKP1 Fusion Protein

GST-Gcn5 = molecular target: T1, GST-Gcn5; assay: GST pulldown affinity assay of bnKCP1 and mutants with GST-Gcn5; assay type: binding; details: [35S]Met-labeled in vitro translated protein
Text: (§1) The full coding regions of the Arabidopsis HAT, Gcn5 (Dr. M. Thomashow, Michigan State University, MI), and HDA19 (Accession # AF195547) were PCR amplified, sequence analyzed and inserted in-frame with the GST (glutathione s-transferase) into the SalI and NotI sites of vector pGEX-6P-2 (Amersham Pharmacia). The forward used for the amplification of Gcn5 was:
(§2) Recombinant pGEX-6P-2 plasmids were used to transform E. coli BL21-CodonPlus (DE3)-RP competent cells (Stratagene). Expression and purification under non-denaturing conditions were carried out as described by Gao et al. (Gao, M.-J. et al., 2002). The GST-Gcn5 and GST-HDA19 fusion proteins were analyzed by 7.5% SDS-PAGE (SDS-polyacrylamide gel electrophoresis) and western blotting with rabbit anti-GST-Pi polyclonal antibody (Chemicon) using ECL Western blotting analysis system (Amersham Pharmacia).
(§3) Full-length bnKCP1 and truncated mutant bnKCP1^1-160 and bnKCP1^1-80 proteins labeled with [^35S]methionine were produced using TNT-Quick Coupled Transcription/Translation System (Promega) according to the manufacture's instructions, with some modifications. A total of 1 μl of RNase inhibitor (GibcoL BRL) and 1 μl of protease inhibitors set (Roche) were added to the lysate reaction. After incubation for 90 min at 30° C., RNase A was added to the reaction to a final concentration of 0.2 mg/ml and incubated for 5 min at the same temperature.
In vitro protein interaction was detected with GST pulldown affinity assays as described by Ahmad et al. (1999) with some modifications. […] After washing six times with 1.2 ml of bead-binding buffer without BSA and EtBr but containing 12 μl of protease inhibitors set (Roche), the bound proteins were eluted with 30 μl of 2×SDS loading buffer, boiled for 2 min and analyzed by 12% SDS-PAGE. […]

Gcn5 = molecular target: T2, Gcn5; assay: Yeast two-hybrid interaction of bnKCP1 with Gcn5 (HIS3, URA3, lacZ reporters); assay type: cell-based; details: MaV203 yeast, Gcn5 fused to Gal4 DB, data not shown
Text: To reassess the interaction of bnKCP1 with Gcn5 in vivo, the ORF of the Arabidopsis Gcn5 was fused to the yeast Gal4 DNA binding domain in pDBLeu vector and then used to transform yeast MaV203 cells expressing bnKCP1 fused to the yeast Gal4 activation domain in pPC86 vector.

GST-HDA19 [2] = molecular target: T3, GST-HDA19; assay: GST pulldown affinity assay of bnKCP1 and mutants with GST-HDA19; assay type: binding; details: [35S]Met-labeled in vitro translated protein
Text: as §1, §2, §3
In vitro protein interaction was detected with GST pulldown affinity assays as described by Ahmad et al. (1999) with some modifications. Briefly, 6 μg of GST or 4 μg of GST-fusion protein was incubated with 5 μl of [^35S]Met-labeled translation mixture in 200 μl of bead-binding buffer (50 mM K-phosphate, pH 7.6, 450 mM KCl, 10 mM MgCl2, 10% glycerol, 1% Triton X-100, 1% BSA and 1 μl of diluted 1:12 protease inhibitors set) for 1 h at room temperature. After incubation, 20 μl of 50% slurry of glutathione-Sepharose beads containing 10 mg/ml of BSA and 4 μg of EtBr was mixed with the reaction mixture followed by gentle rotation for 1 h at 4° C. After washing six times with 1.2 ml of bead-binding buffer without BSA and EtBr but containing 12 μl of protease inhibitors set (Roche), the bound proteins were eluted with 30 μl of 2×SDS loading buffer, boiled for 2 min and analyzed by 12% SDS-PAGE. After electrophoresis, the gels were dried, treated with Amplify (Amersham Pharmacia) and subjected to fluorography.

GST-HDA19 [3] = molecular target: T3, GST-HDA19; assay: GST pulldown affinity assay of BnSCL1 and mutants with GST-HDA19; assay type: binding; details: [35S]Met-labeled in vitro translated protein
Procedure: The open reading frame (ORF) of the HDA19 was PCR amplified, sequence analyzed, inserted in-frame with the GST (glutathione s-transferase) into the vector pGEX-6P-2 (Amersham Pharmacia), and transformed into E. coli BL21-CodonPlus (DE3)-RP competent cells (Stratagene) as previously described (Gao et al., 2003). The recombinant HDA19 protein was expressed and purified under non-denaturing conditions as described by Gao et al, 2002). The GST-HDA19 fusion protein was analyzed by western blotting with rabbit anti-GST-Pi polyclonal antibody (Chemicon) using ECL Western blotting analysis system (Amersham Pharmacia).
The entire coding region of BnSCL1 and four fragments, BnSCL1^1-358, BnSCL1^1-261, BnSCL1^1-217, and BnSCL1^1-145 […], respectively, were amplified by PCR and cloned into the HindIII and XhoI sites of the expression vector pET-28b (Novagen) in-frame with the His-Tag sequence. […]
The TnT-Quick Coupled Transcription/Translation System (Promega) was used to produce the full-length BnSCL1 protein and the truncated mutants ΔBnSCL1^1-358, ΔBnSCL1^1-261, ΔBnSCL1^1-217 and ΔBnSCL1^1-145 labeled with [^35S]methionine as previously described (Gao et al., 2003). In vitro protein interaction was detected with GST pulldown affinity assays as described by Ahmad et al. (1999) and Gao et al., (2003).

[4] = system: lacZ reporter gene driven by a promoter containing GAL4 DNA binding sites; assay: Transactivation assay of BnSCL1 in yeast; assay type: cell-based, yeast MaV203
Text: MaV203 yeast cells expressing the lacZ reporter gene driven by a promoter containing GAL4 DNA binding sites (GibcoL BRL) were transformed with the […]. These vectors were constructed by ligating the PCR-amplified fragments, ΔBnSCL1^1-358, ΔBnSCL1^1-261, ΔBnSCL1^1-217, ΔBnSCL1^1-145, ΔBnSCL1^146-358 and ΔBnSCL1^218-434 and the entire coding region of BnSCL1, respectively, into the SalI and NotI sites of the vector pDBLeu (GibcoL BRL) in-frame with the GAL4 DB sequence. The oligonucleotide primers for the amplification were the same as those used for the in vivo protein interaction assays. The β-galactosidase activity was measured using CPRG according to the manufacturer's instructions (GibcoL BRL). In addition to the yeast strains A, B and C, the yeast strains D (GibcoL BRL) that contain plasmid pairs expressing fusion protein with strong interaction strength was used as controls.

Molecule | activation of reporter genes HIS3 and URA3 ([1]; data not shown) | stimulation of β-galactosidase activity ([1]; relative to GAL4 DB alone or yeast control strain A) | in vitro binding to GST-Gcn5 (GST-Gcn5) | induction of reporter genes HIS3, URA3 and lacZ with Gcn5, compared with HDA19 (Gcn5) | in vitro binding to GST-HDA19 (GST-HDA19 [2]) | in vitro binding to GST-HDA19 (GST-HDA19 [3]) | transactivation of reporter genes HIS3 and URA3 ([4]; data not shown) | increase of β-galactosidase activity ([4]; relative to vector pDBLeu alone or yeast control strain A)
B1 | modestly activated | about 8 fold | bound | relatively lower level | bound |  |  | 
B2 |  |  |  |  |  | bound | strongly transactivated | approximately 20 fold
